How the values were obtained:
[1] = biological target: S500D-eEF-2K, phosphorylated at T348 (S500D-eEF-2K^p) (UniProt O00418)
[2] = biological target: eukaryotic elongation factor-2 kinase, wild type, phosphorylated at T348 (eEF-2K^p) (UniProt O00418)

Ca^2+/CaM-dependent kinase activity kobs (2 μM CaM, 450 μM PepS peptide substrate) [1]: 33 s⁻¹
Ca^2+/CaM-dependent kinase activity kobs (2 μM CaM, 450 μM PepS peptide substrate) [2]: 40 s⁻¹
Substance: calmodulin (CaM) (from UniProt P0DP23 1-149) (natural protein)

Reference: article PMC12834908
